Assay results: US20220226473A1, “Nucleic acid nanocarrier drug and preparation method thereof, pharmaceutical composition and application thereof” (BAI YAO ZHI DA (BEIJING) NANOBIO TECHNOLOGY CO., LTD., priority 2018, published 2022)
Residue numbers refer to the chain shown, from its start. “And” between values parts separate entries of the source, which are not always exact repeats. Equal values may be shown once. Oligonucleotides are written 5' to 3', each unit as a sugar letter and its base; * is a phosphorothioate linkage, no mark a phosphodiester; rarer units and linkages stand in square brackets, end groups in braces. Plain capitals give the bases only. {Biotin} = biotin attached at the strand's 3'-end (Bio); d = 2'-deoxy (DNA)

B1: D-7: conventional-sequence DNA nanoparticle without target head, strands SEQ ID NO: 117-119 (nucleic acid)
chain 1: dC*dG*dC*dGdCdGdCdCdCdAdCdGdAdGdCdGdTdTdGdCdGdGdGdCdGdC*dC*dG*dC
chain 2: dG*dC*dG*dGdCdGdCdCdCdGdCdTdTdCdGdGdCdGdGdCdAdGdGdC*dG*dG*dC
chain 3: dG*dC*dC*dGdCdCdAdGdCdCdGdCdCdCdAdTdAdGdCdCdGdTdGdGdGdCdGdC*dG*dC*dG
modifications: three-strand DNA nanoparticle
B2: D-6: conventional-sequence DNA nanoparticle without target head, strands SEQ ID NO: 114-116 (nucleic acid)
chain 1: dC*dG*dC*dGdCdGdCdCdCdAdGdCdAdGdCdGdTdTdCdGdGdGdGdCdGdC*dC*dG*dC
chain 2: dG*dC*dG*dGdCdGdCdCdCdCdGdTdTdCdGdGdCdCdGdGdCdAdGdGdC*dG*dG*dC
chain 3: dG*dC*dC*dGdCdCdAdGdCdCdGdGdCdCdCdAdTdAdGdCdGdCdTdGdGdGdCdGdC*dG*dC*dG
modifications: three-strand DNA nanoparticle
B3: R-13: conventional-sequence RNA nanoparticle, strands SEQ ID NO: 91-93, C/U 2′F modified (nucleic acid)
chain 1: CGCGCGCCCAGCAGCGUUCGGGGCGCCGC
chain 2: GCGGCGCCCCGUUCGGCCGGCAGGCGGC
chain 3: GCCGCCAGCCGGCCCAUAGCGCUGGGCGCGCG
modifications: 2'-fluoro at CU, RNA at AG, backbone not given here; Strands self-assemble into an RNA nanoparticle carrier
B4: R-8: conventional-sequence RNA nanoparticle with extension fragments, strands SEQ ID NO: 76-78, C/U 2′F modified (nucleic acid)
chain 1: CGCGCGCCCAGGAGCGUUGGCGGGCGGCG
chain 2: CGCCGCCCGCCUUCGCCGCCAGCCGCC
chain 3: GGCGGCAGGCGGCCAUAGCCCUGGGCGCGCG
modifications: 2'-fluoro at CU, RNA at AG, backbone not given here; three-strand RNA nanoparticle used as drug carrier
B5: R-10: conventional-sequence RNA nanoparticle, strands SEQ ID NO: 82-84, C/U 2′F modified (nucleic acid)
chain 1: CGCGCGCCCACGAGCGUUGCGGGGCGGCG
chain 2: CGCCGCCCCGCUUCGCCGCCAGCCGCC
chain 3: B4 chain 3 with C21G
modifications: 2'-fluoro at CU, RNA at AG, backbone not given here; three-strand RNA nanoparticle used as drug carrier
B6: R-9: conventional-sequence RNA nanoparticle, strands SEQ ID NO: 79-81, C/U 2′F modified (nucleic acid)
chain 1: CGCGCGCCCAGCAGCGUUCGCGGGCGGCG
chain 2: CGCCGCCCGCGUUCGCCGCCAGCCGCC
chain 3: B4 chain 3 with C20G
modifications: 2'-fluoro at CU, RNA at AG, backbone not given here; three-strand RNA nanoparticle used as drug carrier
B7: R-11: conventional-sequence RNA nanoparticle, strands SEQ ID NO: 85-87, C/U 2′F modified (nucleic acid)
chain 1: CGCGCGCCCAGGAGCGUUGGCCCGCGGCG
chain 2: CGCCGCGGGCCUUCGGGGCCAGCCGCC
chain 3: B4 chain 3 with G11C, G12C
modifications: 2'-fluoro at CU, RNA at AG, backbone not given here; three-strand RNA nanoparticle used as drug carrier
B8: R-15: extension fragment deformation+core short-sequence RNA nanoparticle, SEQ ID NO: 120-122, a-strand 3′ biotin, 2′F (nucleic acid)
chain 1: GCGGCGAGCGGCGAGGAGCGUUGGGGCCGGAGGCCGG
chain 2: CCGGCCUCCGGCCCCUUCGGGGCCAGCCGCC
chain 3: GGCGGCAGGCCCCCAUAGCCCUCGCCGCUCGCCGC
modifications: chain 1: 2'-fluoro at CU, RNA at AG, 3' {Biotin}, backbone not given here; chain 2: 2'-fluoro at CU, RNA at AG, backbone not given here; chain 3: 2'-fluoro at CU, RNA at AG, backbone not given here; three-strand RNA nanoparticle
B9: R-16: extension fragment deformation+core short-sequence RNA nanoparticle, SEQ ID NO: 123-125, 3′ biotin, 2′F (nucleic acid)
chain 1: B8 chain 1 with G16C, G23C
chain 2: B8 chain 2 with C15G, G20C, G21C
chain 3: B8 chain 3 with C11G, C12G, C20G
modifications: chain 1: 2'-fluoro at CU, RNA at AG, 3' {Biotin}, backbone not given here; chain 2: 2'-fluoro at CU, RNA at AG, backbone not given here; chain 3: 2'-fluoro at CU, RNA at AG, backbone not given here; three-strand RNA nanoparticle
B10: D-2: conventional-sequence DNA nanoparticle with EGFRapt target head, strands SEQ ID NO: 102-104 (nucleic acid)
chain 1: dC*dG*dC*dGdCdGdCdCdCdAdGdCdAdGdCdGdTdTdCdGdCdGdGdGdCdGdGdCdGdGdCdCdTdTdAdGdTdAdAdCdGdTdGdCdTdTdTdGdAdTdGdTdCdGdAdTdTdCdGdAdCdAdGdGdA*dG*dG*dC
chain 2: dC*dG*dC*dCdGdCdCdCdGdCdGdTdTdCdGdCdCdGdCdCdAdGdCdC*dG*dC*dC
chain 3: dG*dG*dC*dGdGdCdAdGdGdCdGdGdCdCdAdTdAdGdCdGdCdTdGdGdGdCdGdC*dG*dC*dG
modifications: three-strand DNA nanoparticle with an EGFR aptamer part
B11: R-12: conventional-sequence RNA nanoparticle, strands SEQ ID NO: 88-90, C/U 2′F modified (nucleic acid)
chain 1: CGCGCGCCCAGCAGCGUUCGCCCCGCCGC
chain 2: GCGGCGGGGCGUUCGGCGGCAGGCGGC
chain 3: GCCGCCAGCCGCCCAUAGCGCUGGGCGCGCG
modifications: 2'-fluoro at CU, RNA at AG, backbone not given here; three-strand RNA nanoparticle used as drug carrier
B12: R-14: conventional-sequence RNA nanoparticle carrying survivin siRNA, strands SEQ ID NO: 94-96, C/U 2′F modified (nucleic acid)
chain 1: CGCGCGCGAGCGUUGCAAUGACAGAUAAGGAACCUGCUTT
chain 2: GGCAGGUUCCUUAUCUGUCAAAGCUUCGGCGGCAGC
chain 3: GCAGCCGCCCAUAGCCGCGCGCG
modifications: chain 1: DNA at T, 2'-fluoro at CU, RNA at AG, backbone not given here; chain 2: 2'-fluoro at CU, RNA at AG, backbone not given here; chain 3: 2'-fluoro at CU, RNA at AG, backbone not given here; three-strand RNA nanoparticle carrying a survivin siRNA fragment

What was measured:
Assay type in all cases: physicochemical
[1] = Electric potential (zeta potential) measurement of self-assembly products; conditions: result over 3 detections
Description: Measurement method: preparing a potential sample (the self-assembly product is dissolved in ultrapure water) and putting into a sample pool, opening a sample pool cover of an instrument, and placing the instrument;
opening software, clicking a menu MeasUre€ManUal, so a manual measurement parameter setting dialog box appears;
setting a software detection parameter;
and then clicking Ok to complete the settings, after a measurement dialog box appears, clicking start to start.
and then clicking Ok to complete the settings, after a measurement dialog box appears, clicking Start to start.
Measurement method: preparing a potential sample (the self-assembly product is dissolved in ultrapure water) and putting into a sample pool, opening a sample pool cover of an instrument, and placing the instrument:
Measurement result potential detection results of the 7 groups of the extension fragment deformation+core short-sequence RNA nanoparticles at 25 DEG C. are as follows:
setting a software detection parameter; and then
clicking Ok to complete the settings, after a measurement dialog box appears, clicking Start to start.
Measurement result potential detection results of the 7 groups of the extension fragment deformation+core short-sequence DNA nanoparticles at 25 DEG C. are as follows: […]

[2] = Particle size measurement (DLS hydrodynamic size); conditions: for Mean particle size (nm): DLS hydrodynamic size
Description: 1. Preparing a potential sample (conventional-sequence DNA self-assembly product D-7) and putting into a sample pool, opening a sample pool cover of an instrument, and placing the instrument;
2. opening software, and clicking a menu, so a manual measurement parameter setting dialog box appears;
3. setting a software detection parameter; and then
4. clicking Ok to complete the settings, when a measurement dialog box appears, clicking Start to start, a DLS measurement value result of a hydrodynamic size of the self-assembly product D-7 is shown below in Table 40: […]

[3] = Drug loading rate of nucleic acid nanoparticles (chemical loading, absorbance standard curve); parameters: unit not given here; conditions: chemical loading method of Embodiment 5
Description: According to the chemical loading method (unless otherwise specified, the method is the same as that of Embodiment 5) of Embodiment 5, the RNA nanoparticles formed by the self-assembly of the previous R-15, R-16, R-17, R-18, R-19, R-20 and R-21 in Embodiment 9, and the DNA nanoparticles formed by the self-assembly of the D-8, D-9, D-10, D-11, D-12, D-13 and D-14 in Embodiment 10 are respectively used as doxorubicin loading carriers, doxorubicin loading rates measured are respectively as follows:
According to the chemical loading method (unless otherwise specified, the method is the same as that of Embodiment 5) of Embodiment 5, the DNA nanoparticles formed by the self-assembly of the previous D-10 and D-14 in Embodiment 10 are used as a daunorubicin loading carrier.
According to a chemical loading method of Embodiment 5 (unless otherwise specified, the method is the same as that of Embodiment 5, the same molar number of the epirubicin is used as a loading amount), nucleic acid nanoparticles (a molecular weight is 29550, it is similar to the RNA nanoparticles in Embodiment 1, and a difference is that a fluorescent label on a c-strand is Cy5) are used as a carrier, and respectively loaded with: epirubicin, methotrexate, pirarubicin, daunorubicin, […], 10-hydroxycamptothecin, aspirin and gemcitabine.
Herein, when a standard curve is drawn, the absorbance of the above drugs on the microplate reader is measured respectively. The absorbance of the epirubicin, methotrexate, pirarubicin, daunorubicin, […], 10-hydroxycamptothecin, aspirin and gemcitabine is respectively detected at the following wavelengths: 492 nm, 303 nm, 492 nm, 492 nm, 265 nm, 384 nm, 225 nm and 268 nm. The standard curves obtained correspondingly are respectively shown in FIG. 48a, FIG. 49, FIG. 50sa, FIG. 51, FIG. 52, FIG. 53, FIG. 54a and FIG. 55. […]

[4] = TM value detection by solubility curve method (SYBR Green I); conditions: RNA nanoparticles; temperature corresponding to ½ RFUmax in 20 to 90 DEG C.
Description: A solubility curve method is used to detect TM values of the 7 groups of the extension fragment deformation+core short-sequence RNA nanoparticles, and the samples are consistent with the potential samples.
(1) After the sample is diluted with ultrapure water, 5 μg of the diluted sample is mixed with 2 μL of SYBR Green I dye (diluted by 1:200), a final volume is 20 μL, and the dilution concentration is as follows:
(2) It is incubated for 30 min in the dark at a room temperature; and
(3) On-machine detection is performed, a program is set to start at 20 DEG C., the temperature rises per second from 0.1 DEG C. to 95 DEG C., and reading is performed every 5 s.
Due to the particularity of the RNA samples, a temperature corresponding to ½ RFUmax in a range of 20 to 90 DEG C. is used as a sample Tm value in this test.
A solubility curve method is used to detect TM values of the 7 groups of the extension fragment deformation+core short-sequence DNA nanoparticles, and the samples are consistent with the potential samples.
(1) After the sample is diluted with ultrapure water, 5 μg of the diluted sample is mixed with 2 μL of SYBR Green I dye (diluted by 1:200). a final volume is 20 μL, and the dilution concentration is as follows: […]

Molecule	Potential ZP, Experiment result ([1]; sample in ultrapure water)	other results
B1	−32.20 mV (±0.0.5 mV)	Particle size Z-Ave, Experiment result ([2]; result over 3 detections, DLS): 12.33 d.nm (±1.57 d.nm); Particle size Z-Ave ([2]; single detection (detection times 1-3), DLS): 10.76 nm·days and 13.9 nm·days and 10.36 nm·days
B2	−31.90 mV (±0.2 mV)	–
B3	−15.45 mV (±5.81 mV)	–
B4	−17.43 mV (±1.33 mV)	–
B5	−10.87 mV (±0.47 mV)	–
B6	−18.20 mV (±1.3 mV)	–
B7	−29.13 mV (±3.13 mV)	–
B8	–	Potential ZP, Experiment result ([1]; at 25 DEG C.): −23.23 mV; Mean particle size (nm) [2]: 6.808 nm; doxorubicin loading rate [3]: 20.5; TM value (° C.) [4]: 57.5 °C
B9	–	Potential ZP, Experiment result ([1]; at 25 DEG C.): −20.93 mV; Mean particle size (nm) [2]: 6.978 nm; doxorubicin loading rate [3]: 29.4; TM value (° C.) [4]: 53.8 °C
B10	−36.47 mV (±0.67 mV)	–
B11	−10.86 mV (±3.27 mV)	–
B12	−23.53 mV. ± 2.33 mV	–
